*1 amine or outer side, *2 acyl side, *3 side chain or, on linkers, in order; H or OH if unused. Bridges are numbered along the chain shown (N, C = ends). Where no end group is shown, it is not given here. The star is where a group is joined. X2 = (S)‑4‑Carboxy‑4‑(19-carboxynonadecanoylamino)butyryl, O=C(O)CCCCCCCCCCCCCCCCCCC(=O)N[C@@H](CCC(=O)*)C(=O)O; C20 diacid = O=C(O)CCCCCCCCCCCCCCCCCCC(=O)*; γGlu = O=C(O)[C@H](CCC(=O)[*:2])N[*:1]
T1: Amylin 3(a) receptor (human calcitonin receptor (CTa) with RAMP-3) (human) (UniProt P30988)
T1 sequence (looked up) 1: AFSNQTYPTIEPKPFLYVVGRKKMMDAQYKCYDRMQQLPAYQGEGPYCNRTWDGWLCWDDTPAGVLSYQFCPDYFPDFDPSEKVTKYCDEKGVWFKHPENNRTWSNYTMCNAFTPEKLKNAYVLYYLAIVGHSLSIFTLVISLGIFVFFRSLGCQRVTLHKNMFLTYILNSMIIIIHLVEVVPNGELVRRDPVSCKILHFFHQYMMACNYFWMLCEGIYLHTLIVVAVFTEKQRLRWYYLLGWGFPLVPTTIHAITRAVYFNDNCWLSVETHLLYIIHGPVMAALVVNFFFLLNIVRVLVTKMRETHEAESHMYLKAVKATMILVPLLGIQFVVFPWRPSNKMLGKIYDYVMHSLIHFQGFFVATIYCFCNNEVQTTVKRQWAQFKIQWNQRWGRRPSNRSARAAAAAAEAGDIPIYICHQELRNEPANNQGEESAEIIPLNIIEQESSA
T1 sequence (looked up) 2: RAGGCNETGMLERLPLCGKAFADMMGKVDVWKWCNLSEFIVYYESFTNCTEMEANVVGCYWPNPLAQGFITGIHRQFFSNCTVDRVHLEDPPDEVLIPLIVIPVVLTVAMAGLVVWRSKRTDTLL

T2: Amylin 3(a) receptor (human calcitonin receptor (CTa) with RAMP-3) (human, UniProt P30988 25-474; O60896 24-148, limits assumed)
T2 sequence (looked up) 1: T1 sequence (looked up) 1
T2 sequence (looked up) 2: T1 sequence (looked up) 2

B1: N-alpha-(19-carboxynonadecanoyl)-Glu-Glu-Arg-[Glu1,Glu14,His17,Glu31]-pramlintide (peptide)
peptide: {C20 diacid}-EERECNTATCATQRLAEFLHHSSNNFGPILPPTEVGSNTY-NH2
modifications: disulfide 5-10
SMILES: CC[C@H](C)[C@H](NC(=O)[C@@H]1CCCN1C(=O)CNC(=O)[C@H](Cc1ccccc1)NC(=O)[C@H](CC(N)=O)NC(=O)[C@H](CC(N)=O)NC(=O)[C@H](CO)NC(=O)[C@H](CO)NC(=O)[C@H](Cc1c[nH]cn1)NC(=O)[C@H](Cc1c[nH]cn1)NC(=O)[C@H](CC(C)C)NC(=O)[C@H](Cc1ccccc1)NC(=O)[C@H](CCC(=O)O)NC(=O)[C@H](C)NC(=O)[C@H](CC(C)C)NC(=O)[C@H](CCCNC(=N)N)NC(=O)[C@H](CCC(N)=O)NC(=O)[C@@H](NC(=O)[C@H](C)NC(=O)[C@@H]1CSSC[C@H](NC(=O)[C@H](CCC(=O)O)NC(=O)[C@H](CCCNC(=N)N)NC(=O)[C@H](CCC(=O)O)NC(=O)[C@H](CCC(=O)O)NC(=O)CCCCCCCCCCCCCCCCCCC(=O)O)C(=O)N[C@@H](CC(N)=O)C(=O)N[C@@H]([C@@H](C)O)C(=O)N[C@@H](C)C(=O)N[C@@H]([C@@H](C)O)C(=O)N1)[C@@H](C)O)C(=O)N[C@@H](CC(C)C)C(=O)N1CCC[C@H]1C(=O)N1CCC[C@H]1C(=O)N[C@H](C(=O)N[C@@H](CCC(=O)O)C(=O)N[C@H](C(=O)NCC(=O)N[C@@H](CO)C(=O)N[C@@H](CC(N)=O)C(=O)N[C@H](C(=O)N[C@@H](Cc1ccc(O)cc1)C(N)=O)[C@@H](C)O)C(C)C)[C@@H](C)O
B2: N-alpha-[19-carboxynonadecanoyl]-Glu-Lys-[Arg1,His17]-pramlintide (peptide)
peptide: {C20 diacid}-EKRCNTATCATQRLANFLHHSSNNFGPILPPTNVGSNTY-NH2
modifications: disulfide 4-9
SMILES: CC[C@H](C)[C@H](NC(=O)[C@@H]1CCCN1C(=O)CNC(=O)[C@H](Cc1ccccc1)NC(=O)[C@H](CC(N)=O)NC(=O)[C@H](CC(N)=O)NC(=O)[C@H](CO)NC(=O)[C@H](CO)NC(=O)[C@H](Cc1c[nH]cn1)NC(=O)[C@H](Cc1c[nH]cn1)NC(=O)[C@H](CC(C)C)NC(=O)[C@H](Cc1ccccc1)NC(=O)[C@H](CC(N)=O)NC(=O)[C@H](C)NC(=O)[C@H](CC(C)C)NC(=O)[C@H](CCCNC(=N)N)NC(=O)[C@H](CCC(N)=O)NC(=O)[C@@H](NC(=O)[C@H](C)NC(=O)[C@@H]1CSSC[C@H](NC(=O)[C@H](CCCNC(=N)N)NC(=O)[C@H](CCCCN)NC(=O)[C@H](CCC(=O)O)NC(=O)CCCCCCCCCCCCCCCCCCC(=O)O)C(=O)N[C@@H](CC(N)=O)C(=O)N[C@@H]([C@@H](C)O)C(=O)N[C@@H](C)C(=O)N[C@@H]([C@@H](C)O)C(=O)N1)[C@@H](C)O)C(=O)N[C@@H](CC(C)C)C(=O)N1CCC[C@H]1C(=O)N1CCC[C@H]1C(=O)N[C@H](C(=O)N[C@@H](CC(N)=O)C(=O)N[C@H](C(=O)NCC(=O)N[C@@H](CO)C(=O)N[C@@H](CC(N)=O)C(=O)N[C@H](C(=O)N[C@@H](Cc1ccc(O)cc1)C(N)=O)[C@@H](C)O)C(C)C)[C@@H](C)O
B3: N-alpha-[(S)-4-Carboxy-4-(19-carboxynonadecanoylamino)butyryl]-Arg-His[Arg1,His17]-pramlintide (peptide)
peptide: X2-RHRCNTATCATQRLANFLHHSSNNFGPILPPTNVGSNTY-NH2
modifications: disulfide 4-9
SMILES: CC[C@H](C)[C@H](NC(=O)[C@@H]1CCCN1C(=O)CNC(=O)[C@H](Cc1ccccc1)NC(=O)[C@H](CC(N)=O)NC(=O)[C@H](CC(N)=O)NC(=O)[C@H](CO)NC(=O)[C@H](CO)NC(=O)[C@H](Cc1c[nH]cn1)NC(=O)[C@H](Cc1c[nH]cn1)NC(=O)[C@H](CC(C)C)NC(=O)[C@H](Cc1ccccc1)NC(=O)[C@H](CC(N)=O)NC(=O)[C@H](C)NC(=O)[C@H](CC(C)C)NC(=O)[C@H](CCCNC(=N)N)NC(=O)[C@H](CCC(N)=O)NC(=O)[C@@H](NC(=O)[C@H](C)NC(=O)[C@@H]1CSSC[C@H](NC(=O)[C@H](CCCNC(=N)N)NC(=O)[C@H](Cc2c[nH]cn2)NC(=O)[C@H](CCCNC(=N)N)NC(=O)CC[C@H](NC(=O)CCCCCCCCCCCCCCCCCCC(=O)O)C(=O)O)C(=O)N[C@@H](CC(N)=O)C(=O)N[C@@H]([C@@H](C)O)C(=O)N[C@@H](C)C(=O)N[C@@H]([C@@H](C)O)C(=O)N1)[C@@H](C)O)C(=O)N[C@@H](CC(C)C)C(=O)N1CCC[C@H]1C(=O)N1CCC[C@H]1C(=O)N[C@H](C(=O)N[C@@H](CC(N)=O)C(=O)N[C@H](C(=O)NCC(=O)N[C@@H](CO)C(=O)N[C@@H](CC(N)=O)C(=O)N[C@H](C(=O)N[C@@H](Cc1ccc(O)cc1)C(N)=O)[C@@H](C)O)C(C)C)[C@@H](C)O
B4: N-alpha-[19-carboxynonadecanoyl]-Glu-Lys-Arg-[His17]-pramlintide (peptide)
peptide: {C20 diacid}-EKRKCNTATCATQRLANFLHHSSNNFGPILPPTNVGSNTY-NH2
modifications: disulfide 5-10
SMILES: CC[C@H](C)[C@H](NC(=O)[C@@H]1CCCN1C(=O)CNC(=O)[C@H](Cc1ccccc1)NC(=O)[C@H](CC(N)=O)NC(=O)[C@H](CC(N)=O)NC(=O)[C@H](CO)NC(=O)[C@H](CO)NC(=O)[C@H](Cc1c[nH]cn1)NC(=O)[C@H](Cc1c[nH]cn1)NC(=O)[C@H](CC(C)C)NC(=O)[C@H](Cc1ccccc1)NC(=O)[C@H](CC(N)=O)NC(=O)[C@H](C)NC(=O)[C@H](CC(C)C)NC(=O)[C@H](CCCNC(=N)N)NC(=O)[C@H](CCC(N)=O)NC(=O)[C@@H](NC(=O)[C@H](C)NC(=O)[C@@H]1CSSC[C@H](NC(=O)[C@H](CCCCN)NC(=O)[C@H](CCCNC(=N)N)NC(=O)[C@H](CCCCN)NC(=O)[C@H](CCC(=O)O)NC(=O)CCCCCCCCCCCCCCCCCCC(=O)O)C(=O)N[C@@H](CC(N)=O)C(=O)N[C@@H]([C@@H](C)O)C(=O)N[C@@H](C)C(=O)N[C@@H]([C@@H](C)O)C(=O)N1)[C@@H](C)O)C(=O)N[C@@H](CC(C)C)C(=O)N1CCC[C@H]1C(=O)N1CCC[C@H]1C(=O)N[C@H](C(=O)N[C@@H](CC(N)=O)C(=O)N[C@H](C(=O)NCC(=O)N[C@@H](CO)C(=O)N[C@@H](CC(N)=O)C(=O)N[C@H](C(=O)N[C@@H](Cc1ccc(O)cc1)C(N)=O)[C@@H](C)O)C(C)C)[C@@H](C)O
B5: N-alpha-[(S)-4-Carboxy-4-(19-carboxynonadecanoylamino)butyryl]-His-His-[Arg1,His17]-pramlintide (peptide)
peptide: HHRCNTATCATQRLANFLHHSSNNFGPILPPTNVGSNTY-NH2
modifications: disulfide 4-9; not fully specified (N-terminus); printed as N-alpha-[(S)-4-Carboxy-4-(19-carboxynonadecanoylamino)butyryl]-His-His-[Arg1,His17]-pramlintide
B6: N-alpha-[(S)-4-Carboxy-4-(19-carboxynonadecanoylamino)butyryl]-His-Arg-[His1,His17]-pramlintide (peptide)
peptide: HRHCNTATCATQRLANFLHHSSNNFGPILPPTNVGSNTY-NH2
modifications: disulfide 4-9; not fully specified (N-terminus); printed as N-alpha-[(S)-4-Carboxy-4-(19-carboxynonadecanoylamino)butyryl]-His-Arg-[His1,His17]-pramlintide
B7: N-alpha-[(S)-4-Carboxy-4-(19-carboxynonadecanoylamino)butyryl]-[His17]-pramlintide (peptide)
peptide: {C20 diacid-γGlu}-KCNTATCATQRLANFLHHSSNNFGPILPPTNVGSNTY-NH2
modifications: disulfide 2-7
B8: N-alpha-[(S)-4-Carboxy-4-(19-carboxynonadecanoylamino)butyryl]-Glu-Arg-His-[Arg1,His17]-pramlintide (peptide)
peptide: X2-ERHRCNTATCATQRLANFLHHSSNNFGPILPPTNVGSNTY-NH2
modifications: disulfide 5-10
SMILES: CC[C@H](C)[C@H](NC(=O)[C@@H]1CCCN1C(=O)CNC(=O)[C@H](Cc1ccccc1)NC(=O)[C@H](CC(N)=O)NC(=O)[C@H](CC(N)=O)NC(=O)[C@H](CO)NC(=O)[C@H](CO)NC(=O)[C@H](Cc1c[nH]cn1)NC(=O)[C@H](Cc1c[nH]cn1)NC(=O)[C@H](CC(C)C)NC(=O)[C@H](Cc1ccccc1)NC(=O)[C@H](CC(N)=O)NC(=O)[C@H](C)NC(=O)[C@H](CC(C)C)NC(=O)[C@H](CCCNC(=N)N)NC(=O)[C@H](CCC(N)=O)NC(=O)[C@@H](NC(=O)[C@H](C)NC(=O)[C@@H]1CSSC[C@H](NC(=O)[C@H](CCCNC(=N)N)NC(=O)[C@H](Cc2c[nH]cn2)NC(=O)[C@H](CCCNC(=N)N)NC(=O)[C@H](CCC(=O)O)NC(=O)CC[C@H](NC(=O)CCCCCCCCCCCCCCCCCCC(=O)O)C(=O)O)C(=O)N[C@@H](CC(N)=O)C(=O)N[C@@H]([C@@H](C)O)C(=O)N[C@@H](C)C(=O)N[C@@H]([C@@H](C)O)C(=O)N1)[C@@H](C)O)C(=O)N[C@@H](CC(C)C)C(=O)N1CCC[C@H]1C(=O)N1CCC[C@H]1C(=O)N[C@H](C(=O)N[C@@H](CC(N)=O)C(=O)N[C@H](C(=O)NCC(=O)N[C@@H](CO)C(=O)N[C@@H](CC(N)=O)C(=O)N[C@H](C(=O)N[C@@H](Cc1ccc(O)cc1)C(N)=O)[C@@H](C)O)C(C)C)[C@@H](C)O

Biological target: T1, Amylin 3(a) receptor (human calcitonin receptor (CTa) with RAMP-3) (human)
Experiment: cell-based or functional assay

Row | Potency Luciferase | Binder
1 | 900 pM | B1

Biological target: T2, Amylin 3(a) receptor (human calcitonin …)
Experiment: cell-based or functional assay

Row | Potency Luciferase | Binder
2 | 70 pM | B2
3 | 100 pM | B3
4 | 60 pM | B4
5 | 90 pM | B5
6 | 50 pM | B6
7 | 200 pM | B7
8 | 100 pM | B8

— patent US20110105394A1 (Novo Nordisk, published 2011)
